Test results: article PMC3981467

Settings: phosphorylation at S183

With p27/Kip1: S183A the other was “no change”.
